Tests used:
pep3 …[X]-CONH2, X = Ile = assay: fluorescence polarisation; FBXO31–SKP1 complex (0–5 µM) titrated to fluorescein-labelled peptide (2–10 nM); 25 mM HEPES, 150 mM NaCl, pH 7.5; room temperature, 30 min; one-site fit, n = 3 parallel experiments
pep3 …[X]-CONH2, X = Arg = assay: as above
pep3 …[X]-CONH2, X = Thr = assay: as above
pep3 …[X]-CONH2, X = Leu = assay: as above
pep3 …[X]-CONH2, X = Glu = assay: as above
pep3 …[X]-CONH2, X = Ser = assay: as above
pep3 …[X]-CONH2, X = Tyr = assay: as above
pep3 …[X]-CONH2, X = Cys = assay: as above
pep3 …[X]-CONH2, X = Gly = assay: as above
pep3 …[X]-CONH2, X = Ala = assay: as above
pep3 …[X]-CONH2, X = Lys = assay: as above
pep3 …[X]-CONH2, X = Val = assay: as above
pep3 …[X]-CONH2, X = Met = assay: as above
pep3 …[X]-CONH2, X = His = assay: as above
pep3 …[X]-CONH2, X = Pro = assay: as above
pep3 …[X]-CONH2, X = Trp = assay: as above
[1] = target: pep3 with terminal Asp amide (…-CONH2); assay: fluorescence polarisation; FBXO31–SKP1 complex (0–5 µM) titrated against fluorescein-labelled peptides (2–10 nM); 25 mM HEPES, 150 mM NaCl, pH 7.5, room temperature, 30 min; one-site fit; constants of the highest affinity probes only approximate
[2] = target: pep3 with terminal Gln amide (…-CONH2); assay: as above
[3] = target: pep3 with terminal Asn amide (…-CONH2); assay: as above
[4] = target: pep3 with terminal Phe amide (…-CONH2); assay: as above

| Substance | Kd (pep3 …[X]-CONH2, X = Ile) [nM] | Kd (pep3 …[X]-CONH2, X = Arg) [nM] | Kd (pep3 …[X]-CONH2, X = Thr) [nM] | Kd (pep3 …[X]-CONH2, X = Leu) [nM] | Kd (pep3 …[X]-CONH2, X = Glu) [nM] | Kd (pep3 …[X]-CONH2, X = Ser) [nM] | Kd (pep3 …[X]-CONH2, X = Tyr) [nM] | Kd (pep3 …[X]-CONH2, X = Cys) [nM] | Kd (pep3 …[X]-CONH2, X = Gly) [nM] | Kd (pep3 …[X]-CONH2, X = Ala) [nM] | Kd (pep3 …[X]-CONH2, X = Lys) [nM] | Kd (pep3 …[X]-CONH2, X = Val) [nM] | Kd (pep3 …[X]-CONH2, X = Met) [nM] | Kd (pep3 …[X]-CONH2, X = His) [nM] | Kd (pep3 …[X]-CONH2, X = Pro) [nM] | Kd (pep3 …[X]-CONH2, X = Trp) [nM] | Kd [1] [nM] | Kd [2] [nM] | Kd [3] [nM] | Kd [4] [nM] |
| --- | --- | --- | --- | --- | --- | --- | --- | --- | --- | --- | --- | --- | --- | --- | --- | --- | --- | --- | --- | --- |
| FBXO31–SKP1 complex (StrepII-FBXO31.1(∆1–65) with SKP1(A2P,∆38–43,∆71–82)) (from UniProt Q5XUX0 66-539; P63208 1-163) | 32.1 | 71 | 42 | 41.4 | 103 | 49.6 | 25.9 | 19.9 | 137 | 54.4 | 93.8 | 43.7 | 21 | 13.2 | 58.2 | 38.2 | – | – | – | – |
| recombinant FBXO31–SKP1 complex (wild type) (from UniProt Q5XUX0 66-539; P63208 1-163) | – | – | – | – | – | – | – | – | – | – | – | – | – | – | – | – | 304 | 55 | 24 | 6 |

Reference: paper PMC11821526
